Source: patent US4770996A, “Identification of individuals predisposed toward alcohol abuse” (priority 1986, dated 1988)

Substrate: NCCc1ccccc1
Experiment: Platelet monoamine oxidase (MAO) assay, deamination of 14C-PEA
Format: biochemical, human
Conditions: other: platelets of control subjects; varying PEA; mean±SEM, n=6; 37.0 °C
Experimental: Platelets were prepared from whole blood (20 ml) which was obtained by venipuncture from healthy volunteers and alcoholic subjects. After standing at room temperature for approximately three to four hours in citrate-phosphate-dextrose solution, each blood sample was centrifuged at 180×G for two minutes. The platelet-rich plasma (PRP) was carefully removed and platelet count was determined from aliquots (20 ul) of the PRP with a Coulter S-plus Thrombocounter. The PRP was centrifuged at 16,000 g for ten minutes. The pellet was resuspended in 50 ml of cold 50 mM Tris-HCl, pH 7.5, containing […] NaCl and 20 mM ethylene diamine tetraacetic acid (EDTA). The centrifugation was repeated twice, and the final pellet was resuspended in 1 ml of cold 5 mM Tris-HCl, pH 7.5, containing 5 mM EDTA. Suspensions were rapidly frozen at -70° C., and samples were stored at -70° C. for no longer than four weeks prior to assay.
To measure the deamination of ^14 C-PEA, assay mixtures (total volume, 0.3 ml) contained approximately 15 ug of platelet protein. Reactions were carried out in 0.1 M sodium phosphate, pH 7.4, at 37° C. […] Two additional ml of water and 20 ml of scintillation fluid were added to each vial, and radioactivity was determined in a liquid scintillation spectrometer. […]

B1: platelet monoamine oxidase (MAO) (Homo sapiens) (protein)
chain: MSNKCDVVVVGGGISGMAAAKLLHDSGLNVVVLEARDRVGGRTYTLRNQKVKYVDLGGSYVGPTQNRILRLAKELGLETYKVNEVERLIHHVKGKSYPFRGPFPPVWNPITYLDHNNFWRTMDDMGREIPSDAPWKAPLAEEWDNMTMKELLDKLCWTESAKQLATLFVNLCVTAETHEVSALWFLWYVKQCGGTTRIISTTNGGQERKFVGGSGQVSERIMDLLGDRVKLERPVIYIDQTRENVLVETLNHEMYEAKYVISAIPPTLGMKIHFNPPLPMMRNQMITRVPLGSVIKCIVYYKEPFWRKKDYCGTMIIDGEEAPVAYTLDDTKPEGNYAAIMGFILAHKARKLARLTKEERLKKLCELYAKVLGSLEALEPVHYEEKNWCEEQYSGGCYTTYFPPGILTQYGRVLRQPVDRIYFAGTETATHWSGYMEGAVEAGERAAREILHAMGKIPEDEIWQSEPESVDVPAQPITTTFLERHLPSVPGLLRLIGLTTIFSATALGFLAHKRGLLVRV
notes: contained approximately 15 ug of platelet protein; from tissue; host or cells: platelets (membranes) from whole blood of volunteers and alcoholic subjects
For B1, the Km was 1.4 ± 0.2 µM and the Vmax was 508±37 pmole/mg protein/minute.
